Results: article PMC3154929, “Phosphatase-Coupled Universal Kinase Assay and Kinetics for First-Order-Rate Coupling Reaction” (PLoS ONE, 2011)

Experiments:
[1] = substrate: Nc1ncnc2c1ncn2[C@@H]1O[C@H](COP(=O)(O)OP(=O)(O)OP(=O)(O)O)[C@@H](O)[C@H]1O; assay: malachite green phosphate release assay; type: biochemical, Mus musculus; details: 25 mM Tris, 150 mM NaCl, 10 mM MgCl2, 10 mM CaCl2, pH 7.5, room temperature
Text: (§1) malachite green phosphate release assay on CD39L2 (ENTPD6)

[2] = substrate: Nc1ncnc2c1ncn2[C@@H]1O[C@H](COP(=O)(O)OP(=O)(O)O)[C@@H](O)[C@H]1O; assay: malachite green phosphate release assay; type: biochemical, Mus musculus; details: 25 mM Tris, 150 mM NaCl, 10 mM MgCl2, 10 mM CaCl2, pH 7.5, room temperature
Text: as §1

purified protein = substrate: Nc1ncnc2c1ncn2[C@@H]1O[C@H](COP(=O)(O)OP(=O)(O)OP(=O)(O)O)[C@@H](O)[C@H]1O; assay: purified protein; type: biochemical, Homo sapiens; details: 20 mM glucose, 10 mM MgCl2, 10 mM CaCl2, 150 mM NaCl, 25 mM Tris pH 7.5, room temperature

B1: CD39L2 (ENTPD6) (Mus musculus) (protein)
chain: MRKIPNHGTLRMTKVAYPLGLCVGLFIYVAYIKWHRASAAQAFFTIAGAASGARWTQQAFSSPGSAARGHEVFYGIMFDAGSTGTRIHVFQFARPPGETPTLTHETFKALKPGLSAYADDVEKSAQGIQELLNVAKQHIPYDFWKATPLVLKATAGLRLLPGEKAQKLLQKVKEVFKASPFLVGDDCVSIMNGTDEGVSAWITVNFLTGSLKTPGSSSVGMLDLGGGSTQITFLPRVEGTLQASPPGHLTALQMFNRTYKLYSYSYLGLGLMSARLAILGGVEGKPAENDKELVSPCLSPRFRGEWEHAEVTYRISGQKAVGLYELCASRVSEVLRNKVHRTEEAQHVDFYAFSYYYDLAASFGLIDAEKGGSLVVGDFEIAAKYVCRTLETQPPSSPFACMDLTYISLLLHEFGFPGDKVLKLARKIDNVETSWALGAIFHYIDSLKRQKVPAL
notes: recombinant, R&D Systems
[1]
  Km: 1.14 mM
  Vmax: 0.928 µmol/min/mg
  kcat: 0.617 s⁻¹
  kcat/Km: 727 M⁻¹ s⁻¹
[2]
  Km: 1.05 mM
  Vmax: 49.1 µmol/min/mg
  kcat: 38.5 s⁻¹
  kcat/Km: 36600 M⁻¹ s⁻¹

B2: human glucokinase (GCK) (Homo sapiens) (protein)
chain: VEQILAEFQLQEEDLKKVMRRMQKEMDRGLRLETHEEASVKMLPTYVRSTPEGSEVGDFLSLDLGGTNFRVMLVKVGEGEEGQWSVKTKHQMYSIPEDAMTGTAEMLFDYISECISDFLDKHQMKHKKLPLGFTFSFPVRHEDIDKGILLNWTKGFKASGAEGNNVVGLLRDAIKRRGDFEMDVVAMVNDTVATMISCYYEDHQCEVGMIVGTGCNACYMEEMQNVELVEGDEGRMCVNTEWGAFGDSGELDEFLLEYDRLVDESSANPGQQLYEKLIGGKYMGELVRLVLLRLVDENLLFHGEASEQLRTRGAFETRFVSQVESDTGDRKQIYNILSTLGLRPSTTDCDIVRRACESVSTRAAHMCSAGLAGVINRMRESRSEDVMRITVGVDGSVYKLHPSFKERFHASVRRLTPSCEITFIESEEGSGRGAALVSAVACKKACMLGQ
notes: V16 to Q465, N-terminal 6xHis tag, expressed in E. coli
Purified protein
  Km: 3.55 mM
